The record followed here is patent US7658917 (PRAECIS PHARMACEUTICALS, dated 2010).

First the molecules themselves.
B1: h-DDII(N-Me-Leu)VEH(Adp)-LKLVFF-oh (peptide)
peptide: H-DDII[NMeL]VEH[Adp]LKLVFF-OH
SMILES: CC[C@H](C)[C@H](NC(=O)[C@H](CC(=O)O)NC(=O)[C@@H](N)CC(=O)O)C(=O)N[C@H](C(=O)N(C)[C@@H](CC(C)C)C(=O)N[C@H](C(=O)N[C@@H](CCC(=O)O)C(=O)N[C@@H](Cc1c[nH]cn1)C(=O)NCCc1cccc2c1oc1c(CCC(=O)N[C@@H](CC(C)C)C(=O)N[C@@H](CCCCN)C(=O)N[C@@H](CC(C)C)C(=O)N[C@H](C(=O)N[C@@H](Cc3ccccc3)C(=O)N[C@@H](Cc3ccccc3)C(=O)O)C(C)C)cccc12)C(C)C)[C@@H](C)CC
B2: h-(Aic)-LVFFA-oh (peptide)
peptide: H-[Aic′]LVFFA-OH
SMILES: CC(C)C[C@H](NC(=O)CC[C@@H](C)[C@H]1CC[C@H]2[C@@H]3[C@H](O)C[C@@H]4C[C@@H](OCCN)CC[C@]4(C)[C@H]3C[C@H](O)[C@]12C)C(=O)N[C@H](C(=O)N[C@@H](Cc1ccccc1)C(=O)N[C@@H](Cc1ccccc1)C(=O)N[C@@H](C)C(=O)O)C(C)C
B3: CA-GFF-oh (peptide)
peptide: Cholyl-Gly-Phe-Phe-OH
SMILES: C[C@H](CCC(=O)NCC(=O)N[C@@H](Cc1ccccc1)C(=O)N[C@@H](Cc1ccccc1)C(=O)O)[C@H]1CC[C@H]2[C@@H]3[C@H](O)C[C@@H]4C[C@H](O)CC[C@]4(C)[C@H]3C[C@H](O)[C@]12C
B4: h-DDIII(N-Me-Val)DLL(Adp)-HQKLVFF-oh (peptide)
peptide: H-DDIII[NMeV]DLL[Adp]HQKLVFF-OH
SMILES: CC[C@H](C)[C@H](NC(=O)[C@H](CC(=O)O)NC(=O)[C@@H](N)CC(=O)O)C(=O)N[C@H](C(=O)N[C@H](C(=O)N(C)[C@H](C(=O)N[C@@H](CC(=O)O)C(=O)N[C@@H](CC(C)C)C(=O)N[C@@H](CC(C)C)C(=O)NCCc1cccc2c1oc1c(CCC(=O)N[C@@H](Cc3c[nH]cn3)C(=O)N[C@@H](CCC(N)=O)C(=O)N[C@@H](CCCCN)C(=O)N[C@@H](CC(C)C)C(=O)N[C@H](C(=O)N[C@@H](Cc3ccccc3)C(=O)N[C@@H](Cc3ccccc3)C(=O)O)C(C)C)cccc12)C(C)C)[C@@H](C)CC)[C@@H](C)CC
B5: CA-AVAFA-oh (peptide)
peptide: Cholyl-AVAFA-OH
SMILES: CC(C)[C@H](NC(=O)[C@H](C)NC(=O)CC[C@@H](C)[C@H]1CC[C@H]2[C@@H]3[C@H](O)C[C@@H]4C[C@H](O)CC[C@]4(C)[C@H]3C[C@H](O)[C@]12C)C(=O)N[C@@H](C)C(=O)N[C@@H](Cc1ccccc1)C(=O)N[C@@H](C)C(=O)O
B6: CA-FFVLA-oh (peptide)
peptide: Cholyl-FFVLA-OH
SMILES: CC(C)C[C@H](NC(=O)[C@@H](NC(=O)[C@H](Cc1ccccc1)NC(=O)[C@H](Cc1ccccc1)NC(=O)CC[C@@H](C)[C@H]1CC[C@H]2[C@@H]3[C@H](O)C[C@@H]4C[C@H](O)CC[C@]4(C)[C@H]3C[C@H](O)[C@]12C)C(C)C)C(=O)N[C@@H](C)C(=O)O
B7: CA-FFV-oh (peptide)
peptide: Cholyl-Phe-Phe-Val-OH
SMILES: CC(C)[C@H](NC(=O)[C@H](Cc1ccccc1)NC(=O)[C@H](Cc1ccccc1)NC(=O)CC[C@@H](C)[C@H]1CC[C@H]2[C@@H]3[C@H](O)C[C@@H]4C[C@H](O)CC[C@]4(C)[C@H]3C[C@H](O)[C@]12C)C(=O)O
B8: CA-FFVL-oh (peptide)
peptide: Cholyl-FFVL-OH
SMILES: CC(C)C[C@H](NC(=O)[C@@H](NC(=O)[C@H](Cc1ccccc1)NC(=O)[C@H](Cc1ccccc1)NC(=O)CC[C@@H](C)[C@H]1CC[C@H]2[C@@H]3[C@H](O)C[C@@H]4C[C@H](O)CC[C@]4(C)[C@H]3C[C@H](O)[C@]12C)C(C)C)C(=O)O
B9: CA-LVFAA-oh (peptide)
peptide: Cholyl-LVFAA-OH
SMILES: CC(C)C[C@H](NC(=O)CC[C@@H](C)[C@H]1CC[C@H]2[C@@H]3[C@H](O)C[C@@H]4C[C@H](O)CC[C@]4(C)[C@H]3C[C@H](O)[C@]12C)C(=O)N[C@H](C(=O)N[C@@H](Cc1ccccc1)C(=O)N[C@@H](C)C(=O)N[C@@H](C)C(=O)O)C(C)C

Numbered stars: 1 amine (or outer) side, 2 acyl side, 3 side chain; on linkers, the order of the positions; unused ones are H or OH. Square brackets hold non-standard residues; d marks the D form. Primed or numbered codes have the meaning given here. Ends that are not written are not given here. * marks the point of attachment. Aic′ = 3-(O-aminoethyl-iso)-cholyl, C[C@H](CCC(=O)*)[C@H]1CC[C@H]2[C@@H]3[C@H](O)C[C@@H]4C[C@@H](OCCN)CC[C@]4(C)[C@H]3C[C@H](O)[C@]12C; Cholyl = C[C@H](CCC(=O)*)[C@H]1CC[C@H]2[C@@H]3[C@H](O)C[C@@H]4C[C@H](O)CC[C@]4(C)[C@H]3C[C@H](O)[C@]12C; Deoxycholoyl = C[C@H](CCC(=O)*)[C@H]1CC[C@H]2[C@@H]3CC[C@@H]4C[C@H](O)CC[C@]4(C)[C@H]3C[C@H](O)[C@]12C; Lithocholoyl = C[C@H](CCC(=O)*)[C@H]1CC[C@H]2[C@@H]3CC[C@@H]4C[C@H](O)CC[C@]4(C)[C@H]3CC[C@]12C; Adp = aminoethyldibenzofuranylpropanoic acid, O=C(CCc1cccc2c1oc1c(CCN[*:1])cccc12)[*:2]; iminobiotinyl = N=C1N[C@H]2[C@H](CS[C@H]2CCCCC(=O)*)N1; Tyr(3-I) = N[C@@H](Cc1ccc(O)c(I)c1)C(=O)O; NMeL = CN[C@@H](CC(C)C)C(=O)O; NMeV = CN[C@H](C(=O)O)C(C)C; NANA = N-acetyl neuraminyl; Boc = CC(C)(C)OC(=O)* Some results are limits rather than exact numbers.

One assay deals with natural β-amyloid peptide β-AP1-40 (human). Kind of assay: cell-based or functional assay.
natural β-amyloid peptide β-AP1-40 (human), sequence (peptide, as listed by the source): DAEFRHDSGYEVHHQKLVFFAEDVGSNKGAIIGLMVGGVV
On to Cholyl-KLVFFAEDVGSNKGA [cholyl-Aβ16-30], for which the “% Inhibition of Plateau; nucleation assay; 100 mole %” value (from here on “% Inhibition of Plateau”) came out at 100% and the “Fold Increase in Lag Time; nucleation assay; 100 mole %” value (from here on “Fold Increase in Lag Time … 100 mole %”) is more than 4.5 fold.
Taken in the same sequence, the figures for Cholyl-EVHHQKLVFFAEDVG [cholyl-Aβ11-25] were approximately 0% and 1.5 fold.
Taken in the same sequence, the figures for iminobiotinyl-AEDVGSNKGAIIGLM [iminobiotinyl-Aβ21-35] were 66% and approximately 1 fold.
The matching figures for iminobiotinyl-KLVFFAEDVGSNKGA [iminobiotinyl-Aβ16-30]: 55% and 1.2 fold.
On to {NANA}-HDSGYEVHHQKLVFF [NANA-Aβ6-20], for which the “% Inhibition of Plateau” value was 64% and the “Fold Increase in Lag Time … 100 mole %” value turned out to be 1.3 fold.
Turning to {NANA}-DAEFRHDSGYEVHHQ [NANA-Aβ1-15], the “% Inhibition of Plateau” value is approximately 0% and the “Fold Increase in Lag Time … 100 mole %” value was approximately 1 fold.
In the case of {NANA}-KLVFFAEDVGSNKGA [NANA-Aβ16-30], the “% Inhibition of Plateau” value was approximately 0% and the “Fold Increase in Lag Time … 100 mole %” value is approximately 1 fold.
Consider {NANA}-AEDVGSNKGAIIGLM [NANA-Aβ21-35], for which the “% Inhibition of Plateau” value is 53% and the “Fold Increase in Lag Time … 100 mole %” value was approximately 1 fold.
The matching figures for iminobiotinyl-EVHHQKLVFFAEDVG [iminobiotinyl-Aβ11-25]: 40% and 1.2 fold.
iminobiotinyl-DAEFRHDSGYEVHHQ [iminobiotinyl-Aβ1-15]: the “% Inhibition of Plateau” value is approximately 0% and the “Fold Increase in Lag Time … 100 mole %” value is 1.2 fold.
Taken in the same sequence, the figures for {NANA}-SNKGAIIGLMVGGVV [NANA-Aβ26-40] were approximately 0% and 1.3 fold.
Consider iminobiotinyl-HDSGYEVHHQKLVFF [iminobiotinyl-Aβ6-20], for which the “% Inhibition of Plateau” value was 44% and the “Fold Increase in Lag Time … 100 mole %” value worked out at 1.6 fold.
In the case of Cholyl-DAEFRHDSGYEVHHQ [cholyl-Aβ1-15], the “% Inhibition of Plateau” value turned out to be 100% and the “Fold Increase in Lag Time … 100 mole %” value is more than 4.5 fold.
Taken in the same sequence, the figures for Cholyl-SNKGAIIGLMVGGVV [cholyl-Aβ26-40] were 87% and more than 4.5 fold.
As for Cholyl-AEDVGSNKGAIIGLM [cholyl-Aβ21-35], the “% Inhibition of Plateau” value was 51% and the “Fold Increase in Lag Time … 100 mole %” value was 1.6 fold.

For a further assay the target is unchanged. The assay is described as follows: cell-based or functional assay. The source holds these as a separate data set.
In the case of Lithocholoyl-LVFFA-OH [LithoCA-LVFFA-oh], the “% Iext'n; seeded extension assay; 25 mole %” value (“% Iext'n” for short) came to 0%, the “% Inucl'n; nucleation assay; 100 mole %” value was -229% and the “ΔLag; nucleation assay; 100 mole %” value came to 2.8 ratio.
For B1, the “% Iext'n” value was 7%, the “% Inucl'n; nucleation assay; 100 mole %” value was -29% and the “ΔLag; nucleation assay; 100 mole %” value was 1.8 ratio.
B2: the “% Iext'n” value was 87%, the “% Inucl'n; nucleation assay; 33 mole %” value came to 100% and the “ΔLag; nucleation assay; 33 mole %” value is more than 5 ratio.
Take Deoxycholoyl-LVFFA-OH [DeoxyCA-LVFFA-oh]: the “% Iext'n” value came out at 82%, the “% Inucl'n; nucleation assay; 100 mole %” value was -114% and the “ΔLag; nucleation assay; 100 mole %” value came out at 3 ratio.
Take B3: the “% Inucl'n; nucleation assay; 100 mole %” value came out at 0% and the “ΔLag; nucleation assay; 100 mole %” value is 1 ratio.
As to B4, the “% Iext'n” value is 0%, the “% Inucl'n; nucleation assay; 100 mole %” value was -75% and the “ΔLag; nucleation assay; 100 mole %” value was found to be 1.4 ratio.
Consider Cholyl-LVF[Tyr(3-I)]A-OH [CA-LVF(IY)A-oh], for which the “% Inucl'n; nucleation assay; 100 mole %” value is 95% and the “ΔLag; nucleation assay; 100 mole %” value was more than 5 ratio.
B5: the “% Inucl'n; nucleation assay; 100 mole %” value is -15% and the “ΔLag; nucleation assay; 100 mole %” value was 1 ratio.
As to Boc-LVFFA-OH [t-Boc-LVFFA-oh], the “% Inucl'n; nucleation assay; 100 mole %” value was -5% and the “ΔLag; nucleation assay; 100 mole %” value was 3 ratio.
Regarding B6, the “% Iext'n” value was 89%, the “% Inucl'n; nucleation assay; 100 mole %” value amounted to 100% and the “ΔLag; nucleation assay; 100 mole %” value was more than 5 ratio.
For B7, the “% Iext'n” value turned out to be 7%, the “% Inucl'n; nucleation assay; 100 mole %” value is -33% and the “ΔLag; nucleation assay; 100 mole %” value was determined as 2.2 ratio.
For B8, the “% Iext'n” value came out at 75%, the “% Inucl'n; nucleation assay; 100 mole %” value turned out to be 33% and the “ΔLag; nucleation assay; 100 mole %” value was 4.1 ratio.
For the molecule B9, the “% Inucl'n; nucleation assay; 100 mole %” value stood at 40% and the “ΔLag; nucleation assay; 100 mole %” value worked out at 1.6 ratio.
Taken in the same sequence, the figures for Cholyl-[dL][dV][dF][dF][dA]-OH [CA-LVFFA-oh (all D amino acids)] were 27% and 2.8 ratio.
